Where two headings read alike, the source gives them in different places.
What was measured:
[1] = tested on: PBMC; experiment: Induction of regulatory T cells in vitro with OKT3 then IL-10/IL-2; inhibition of PHA-stimulated PBMC proliferation; type: cell-based, human
Description: See text in Example 4 for details of the experimental procedure. […] In the left panel of FIG. 10A, responder cells alone were stimulated with PHA and the percentage of proliferating cells was 67%. In the right panel of FIG. 10A, responder cells were stimulated with PHA in the presence of cells treated with anti-CD3 mAb/IL-10/IL-2, and the percentage of proliferating cells was 43%. The number of proliferating responder cells (i.e. diluted CFSE (carboxy-fluorescein diacetate, succinimidyl ester)) in the presence of the added cells is shown. […] In the left panel of FIG. 10B, responder cells alone were stimulated with PHA and the percentage of proliferating cells was 50%. In the right panel of FIG. 10B, responder cells were stimulated with PHA in the presence of IL-10/IL-2 cultured cells, and the percentage of proliferating cells was 54%.
3. Treatment with anti-CD3 mAb induces regulatory T cells in vitro: In order to obtain sufficient numbers of cells for studies of functional properties, anti-CD3 mAb has been utilized to expand regulatory T cells in vitro. PBMC were cultured for 10 days with OKT3 mAb and then CD4+ cells were isolated by sorting. They were then cultured for 19 days with IL-10 and IL-2. These cells were then added to cultures of PBMC from the same individual, stimulated with PHA (phytohemagglutinin). […] The majority (94%) of the CD4+ cells that inhibit PBMC proliferation are CCR4+, 46% are CD62L+, and 93% are CD45RO+. About 5% of the cells are GITR+.

[2] = tested on: patients with new onset Type 1 diabetes; experiment: Side effects of hOKT3γ1(Ala-Ala) in the Phase I/II trial (WHO Criteria); type: in vivo, human
Description: The dosing regimen was modified from a 14-day to a 12-day course after treatment of the first 12 patients.

[3] = tested on: PBMC; experiment: Inhibitory properties of cells grown in hOKT3γ1(Ala-Ala) and IL-10/IL-2 on PHA-stimulated PBMC; type: cell-based, human; conditions: 10 days with mAb, sorted, 2 weeks IL-10 and IL-2
Method: Other cells were cultured in IL-10/IL-2 (FIG. 11B), sorted, and then cultured for an addition 19 days in IL-10/IL-2. Both groups of cells were added to fresh PBMC. Uptake of 3H-thymidine was measured 72 hrs after the addition of PHA.
These cells were then cultured for an additional 2 weeks in IL-10 and IL-2 and then added to PBMC from the same donor and stimulated with PHA.

[4] = tested on: CD4+IL-10+ T cells; experiment: Induction of CD4+IL-10+ cells in vivo in treated patients (intracellular cytokine staining); set-up: species or system human
Description: Cells were isolated from patients after treatment with the mAb and stained for intracytoplasmic IL-10 and IFN-γ without further activation ex vivo. IL-10+CD4+ cells were identified in 5/6 patients within 1 week after the last dose of mAb.
2. […] PBMC were harvested and frozen from a patient treated with hOKT3γ1(Ala-Ala) at the conclusion of mAb treatment. These cells, as well as those harvested before mAb treatment were thawed and stained for intracellular cytokines, IL-10 and IFN-γ. Markers were placed around surface molecules CD4 and CD3. Cells harvested from patients after anti-CD3 mAb treatment were producing IL-10 in vivo. […] These induced cells were IFN-γ negative, predominantly CD45RO+, and generally CCR4+. Thirteen percent of these cells produced TGF-β by surface staining.

[5] = tested on: T cells; conditions: cited from earlier work
[6] = tested on: patients with new onset Type 1 diabetes; experiment: Phase I/II trial of hOKT3γ1(Ala-Ala) in new onset Type 1 diabetes: C-peptide response to MMTT; type: in vivo, human; conditions: patients with new onset T1D
[7] = tested on: NOD mice; conditions: cited from earlier work
[8] = after OKT3 10 days, IL-10/IL-2 19 days
[9] = Phase I/II trial, 12 or 14-day regimen

OKT3 mAb: murine anti-CD3 mAb; in FIG. 10 cells cultured with it, then with IL-10 and IL-2
percentage of proliferating responder cells ([1]; PHA stimulation in presence of added cultured cells, responder cells alone 67% (FIG. 10A) or 50% (FIG. 10B)): 43% | inhibitory CD4+ cells that are CCR4+ [1, 8]: 94% | inhibitory CD4+ cells that are CD45RO+ [1, 8]: 93% | inhibitory CD4+ cells that are CD62L+ [1, 8]: 46% | inhibitory CD4+ cells that are GITR+ [1, 8]: About 5% | effect of added cultured cells on proliferation of PHA-stimulated CD4+ T cells/PBMC ([1]; cells added at ratio 1:5): inhibited proliferation

hOKT3γ1(Ala-Ala): humanized anti-CD3 mAb with the same CDR region as OKT3 and a mutation in the Fc portion to reduce FcR binding
Arthralgia, Mild [2, 9]: 8% | Arthralgia, Moderate [2, 9]: 0 | Arthralgia, Severe [2, 9]: 0 | Diarrhea, Mild [2, 9]: 0 | Diarrhea, Moderate [2, 9]: 0 | Diarrhea, Severe [2, 9]: 0 | Dyspnea, Mild [2, 9]: 8% | Dyspnea, Moderate [2, 9]: 0 | Dyspnea, Severe [2, 9]: 0 | Fever, Mild [2, 9]: 17% | Fever, Moderate [2, 9]: 58% | Fever, Severe [2, 9]: 0 | Headache, Mild [2, 9]: 33% | Headache, Moderate [2, 9]: 0 | Headache, Severe [2, 9]: 0 | Hypotension, Mild [2, 9]: 0 | Hypotension, Moderate [2, 9]: 0 | Hypotension, Severe [2, 9]: 0 | Myalgia, Mild [2, 9]: 17% | Myalgia, Moderate [2, 9]: 0 | Myalgia, Severe [2, 9]: 0 | Nausea, Mild [2, 9]: 8% | Nausea, Moderate [2, 9]: 0 | Nausea, Severe [2, 9]: 0 | Rash, Mild [2, 9]: 58% | Rash, Moderate [2, 9]: 25% | Rash, Severe [2, 9]: 0 | Vomiting, Mild [2, 9]: 8% | Vomiting, Moderate [2, 9]: 0 | Vomiting, Severe [2, 9]: 0 | tolerability ([2]; data from patients with T1DM): well tolerated | effect of CCR4+ cells from cultures on proliferation of PHA-stimulated PBMC [3]: inhibited proliferation | induced CD4+IL-10+ cells producing TGF-β by surface staining ([4]; PBMC at conclusion of mAb treatment): Thirteen | patients in whom IL-10+CD4+ cells were identified ([4]; within 1 week after the last dose of mAb): 5/6 | cytokine production after activation signal to T cells ([5]; compared with OKT3, Herold et al. 2003): relatively greater production of IL-10 instead of IFN-γ | T cell activation compared with OKT3 ([5]; in vitro or in vivo, Xu et al. 2000): does not cause the same T cell activation | duration of functional immunologic tolerance after treatment [6]: at least 1 year

insulin B9-23 peptide: peptide comprising amino acids 9-23 of the insulin B chain (SHLVEALYLVCGERG)
anaphylaxis ([7]; mouse, in vivo): anaphylaxis | anaphylaxis ([7]; reports in NOD mice (Liu et al. 2002; Pedotti et al. 2003), listed as insulin peptide): fatal anaphylactic reactions

rhGAD65: human GAD 65 protein, obtained from Diamyd
anaphylaxis ([7]; reports in NOD mice (Liu et al. 2002; Pedotti et al. 2003)): fatal anaphylactic reactions

Reference: patent publication US20070190045A1, “Anti-CD3 and antigen-specific immunotherapy to treat autoimmunity” (priority 2004, published 2007)
